We go through 40 sequences from the nanobody polyreactivity screen of Harvey et al. (2022).

The data set can be described thus: yeast display, Sf9 membrane polyspecificity reagent, FACS + sequencing; frameworks hold sequencing errors. Put shortly:
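Nanobodies from a synthetic yeast display library (Saccharomyces cerevisiae BJ5465), induced 36–48 hours with galactose, were stained 1 hour at 4 °C with 10% biotinylated, detergent-solubilized Sf9 membrane reagent, enriched on streptavidin microbeads, then FACS-sorted. Anti-HA (expression) and streptavidin (reagent binding) fluorescence set low and high (top ~1%) gates. Polyreactivity labels come from the gate of origin. Genes were colony-PCR amplified, MiSeq 2 × 250 sequenced and filtered by CDR length.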
For the sequence “QVQLVESGGGLVQAGGSLRLSCAASGSTFTLYAMGWYRQAPGKERELVATITGSGGSTNYADSVKGRFTISRDNAKNTVYLQMNSLKPEDTAVYYCAADYAVYSFTEFNYWGQGSQVTVSS”, the “polyreactivity (PSR sort gate)” value is reported as “high polyreactivity”.

As to “QVQLVESGGGLVQAGGSLRLSCAASGSTFTNYAMGWYRQAPGKERELVAAINNDRTNYADSVKGRFTISRDNAKNTVYLQMNSLKPEDTAVYYCAAQWRVYGYKISRRNYWGQGTQVTVSS”, the “polyreactivity (PSR sort gate)” value is reported as “high polyreactivity”.

Consider “QVQLVESGGGLVQAGGSLRLSCAASGSTFTPYAMGWYRQVPGKERELVASITIGGSTYADSVKGRFTISRDNSKNTVYLQMNSLKPEDTAVYYCNADWNWYPFLYSRMDYWGQGTQVTVSS”, for which the “polyreactivity (PSR sort gate)” value is “low polyreactivity”.

For “QVQLVESGGGLVQAGGSLRLSCAASGSTFTQNAMGWYRQAPGKERELVAAIDRRGGSTYYADSVKGRFTISRDNAKNTVYLQMNSLKPEDTAVYYCAASFSYNRPKRFTHNYEYWGQGTQVTVSS”, the “polyreactivity (PSR sort gate)” value is “low polyreactivity”.

Turning to “QVQLVESGGGLVQAGGSLRLSCAASGSTFTRNPLGWYRQAPGKERELVATISRSGGSTYYADSVKGRFTISRDNAKNTVYLQMNSLKPEDTAVYYCARPYQYYKFYSHDYWGQGTQVTVSS”, the “polyreactivity (PSR sort gate)” value is given as “high polyreactivity”.

Take “QVQLVESGGGLVQAGGSLRLSCAASGSTFTRYAMGWYRQAPGKERELVAAITRSGGGTYYADSVKGRFTISRDNAKNTVYLQMNSLKPEDTAVYYCAKDIVFYGAPGYGYWGQGTQVTVSS”: the “polyreactivity (PSR sort gate)” value is on record as “high polyreactivity”.

As for “QVQLVESGGGLVQAGGSLRLSCAASGSTFTRYAMGWYRQAPGTERECVAGITSIGGRTYYADSVKGRFTISRDNAKNTVYLQMNSLKPEDTAVYYCAKRWGRYYYPYDYWGQGTQVTVSS”, the “polyreactivity (PSR sort gate)” value is on record as “high polyreactivity”.

In the case of “QVQLVESGGGLVQAGGSLRLSCAASGSTFTSYTMGWYRQAPGKERELVAAISRGGGRTYYADSVKARFTISRDNAKNTVYLQMYRLNPEDTAVYYCNKVLRGDRAGPGYDHWGLGTQVTVSS”, the “polyreactivity (PSR sort gate)” value was “high polyreactivity”.

Consider “QVQLVESGGGLVQAGGSLRLSCAASGSTFTTYAMGWYRQAPGKERELVAVITDSGGTYYADSVQGRFTISRDNAKNTVYLQMNSLKPEDTAVYYCNRVFPPTDYEFDSWGQGTQVTVSS”, for which the “polyreactivity (PSR sort gate)” value is “low polyreactivity”.

Turning to “QVQLVESGGGLVQAGGSLRLSCAASGSTFTTYGMGWYRQAPGKERELVAAISLSSGRTYYADSVKGRFTISRDNAKNTVYLQMNSLKPEDTAVYYCNKRSQKPSQYKPYGYWGQGTQVTVSS”, the “polyreactivity (PSR sort gate)” value is on record as “high polyreactivity”.

“QVQLVESGGGLVQAGGSLRLSCAASGSTFTWNAMGWYRQAPGKERELVAAISGDGGSTYYADSVKGRFTISRDNAKNTVYLQMNSLKPEDTAVYYCAASSAHIYSYRYNYWGQGTQVTVSS”: the “polyreactivity (PSR sort gate)” value is “low polyreactivity”.

In the case of “QVQLVESGGGLVQAGGSLRLSCAASGSTFTYNAMGWYRQAPGKERELVASISSGTTTYYADSVKGRFTISRDNAKNTVYFQMHSLKPEDTAVYYCAVDSWSRVQGWLAHNYDYWGQGTQVTVSS”, the “polyreactivity (PSR sort gate)” value is reported as “low polyreactivity”.

For “QVQLVESGGGLVQAGGSLRLSCAASGSTFTYYAMGWSRQAPGKERELVAVINKSGGRTNYADSVKGRFTISRDNPKNTVYLQMNSLKPEDTAVYYCNAYYTSFYTGDDYWGQGTQVTVSS”, the “polyreactivity (PSR sort gate)” value is listed as “high polyreactivity”.

As for “QVQLVESGGGLVQAGGSLRLSCAASGSTFTYYAMGWSRQEPGIEREFVAAISRRGGSTYYADSVKGRFTISRDNAMNTVYLQMKSLKQEDTPVYYCNVVIYSYGINGRYDYWGQGTQDTVSS”, the “polyreactivity (PSR sort gate)” value is recorded as “high polyreactivity”.

As for “QVQLVESGGGLVQAGGSLRLSCAASGSTFTYYAMGWYRQAPGKERELVAAITSRGGITYYADSVKGRFTISRDNAKNTVYLQMHSLKPEDTAVYYCNAYSQRYGYYYWGQGTQVTVSS”, the “polyreactivity (PSR sort gate)” value is given as “high polyreactivity”.

As for “QVQLVESGGGLVQAGGSLRLSCAASGSTFTYYTMGWSRQAPGKERELVAASSRTTGSTYYADSVKGRFTISRDNAKNTVYLQMNSLIPEDTAVYYCAAQSYKILLYFIGTAGDGYWGQGTQVTVSS”, the “polyreactivity (PSR sort gate)” value was “low polyreactivity”.

For the sequence “QVQLVESGGGLVQAGGSLRLSCAASGSTFVAYPMGWYRQAPGKERELVATISSGGNTKYADSVKGRFTISRDNAKNTVYLQMNSVKPEDTAVYYCNAGRYRYRYRSYPYDYWGQGTQVTVSS”, the “polyreactivity (PSR sort gate)” value is on record as “high polyreactivity”.

For the sequence “QVQLVESGGGLVQAGGSLRLSCAASGSTFVDNAMGWYRQAPGKERELVAAISRGGSTHYADSVKGRFTISRDNAKNTVYLQMNSLKPEDTAVYYCNKDTKRLLWFYKYYYWGQGTQVTVSS”, the “polyreactivity (PSR sort gate)” value is “high polyreactivity”.

With “QVQLVESGGGLVQAGGSLRLSCAASGSTFVDYAMGRYRQAPGKERELVAAITRSGSSTYYADSVKGRFTISRDIAKNTVYLQMNSLKPEDTAVYYCAAVRYRGLQVKFYYWGQGTQVTVSS”, the “polyreactivity (PSR sort gate)” value is “high polyreactivity”.

Turning to “QVQLVESGGGLVQAGGSLRLSCAASGSTFVDYAMGWYRQAPGKERELVAAISFSDGSTYYADSVKGRFTISRDNAKNTVYLQMNSLKPEDTAVYYCAKDAYWGYRWYTYDYWGQGTQVTVSS”, the “polyreactivity (PSR sort gate)” value is reported as “low polyreactivity”.

On to “QVQLVESGGGLVQAGGSLRLSCAASGSTFVENAMGWYRQAPGKEREVVAAISSSGDSTFYADSVKGRFTISRDNAKNTVYLQMKSLKPEDTAVYYCAADRRINYDGLDMDYWGQGTQVTVSS”, for which the “polyreactivity (PSR sort gate)” value was “low polyreactivity”.

Take “QVQLVESGGGLVQAGGSLRLSCAASGSTFVENAMGWYRQAPGKQRELVAAISSSGDSTFYADSEKGRFTISRDNAKNTVYLQMNSLIPEDTAVYYCAADRRINYDGLDMDYWGQGTQVTVSS”: the “polyreactivity (PSR sort gate)” value is reported as “low polyreactivity”.

Consider “QVQLVESGGGLVQAGGSLRLSCAASGSTFVGNAMGWYRHAPGKEREMVATISNSGGRTYYADSVKGRFTISRDNAKNTVYLQLNSLKPEDTEVYYCAADHPAFGPGYSFDYWGQGTQVTVSS”, for which the “polyreactivity (PSR sort gate)” value is reported as “low polyreactivity”.

For the sequence “QVQLVESGGGLVQAGGSLRLSCAASGSTFVGNAMGWYRQAPGKERELVAAITGGGGSTNYADSVKGRFTISRDNAKNTVYLQMNSLKPEDTAVYYCAVEVYYTGFYYSPYAYDYWGQGTQVTVSS”, the “polyreactivity (PSR sort gate)” value was “low polyreactivity”.

For the sequence “QVQLVESGGGLVQAGGSLRLSCAASGSTFVGNAMGWYRQAPGKERELVANITSGGSTNYADSVKGRFTISRDNAKNTVYLQMNSLKPEDTAVYYCAAVYLWSQRREYWGQGTQVTVSS”, the “polyreactivity (PSR sort gate)” value is on record as “low polyreactivity”.

On to “QVQLVESGGGLVQAGGSLRLSCAASGSTFVGNAMGWYRQAPGKERELVATMSNSGGRTYYADSVKGRFTISRDNAKNSVYLQMNSLKPEDTAVYFCNAQFDLTFRGTGDYWGQGTQVTVSS”, for which the “polyreactivity (PSR sort gate)” value is “low polyreactivity”.

Consider “QVQLVESGGGLVQAGGSLRLSCAASGSTFVGYAMGWYRQAPGKERELVAAISRSGGRTYYADSVKGRFTISRDNAKNTVYLQMNSLKPEETAVYYCYPYYIASTFDYWGQGTQVTVSS”, for which the “polyreactivity (PSR sort gate)” value was “high polyreactivity”.

In the case of “QVQLVESGGGLVQAGGSLRLSCAASGSTFVGYAMGWYRQAPGKERELVADIDSIGGSTYYADSVKGRFTISRDNAKNTVYLQMNSLKPEDTAVYYCAAYQHPGLRTSYEYWGQGTQVTVSS”, the “polyreactivity (PSR sort gate)” value is reported as “low polyreactivity”.

On to “QVQLVESGGGLVQAGGSLRLSCAASGSTFVGYAMGWYRQAPGKERELVADITWSGTNTYYADSVKGRFTISRDNAKNTVYLQMNSLKPEDTAVYYCAAELELLLVGFFTYRREYWGQGTQVTVSS”, for which the “polyreactivity (PSR sort gate)” value was “low polyreactivity”.

As to “QVQLVESGGGLVQAGGSLRLSCAASGSTFVGYTMGWYIQAPGKERELVAAISRGGGSTYYADSVKGRFTISRDNAKNTVYLQMNSLKPEDTAVYYCAATGFYARLSSIYYYWGQGTQVTVSS”, the “polyreactivity (PSR sort gate)” value was “high polyreactivity”.

Consider “QVQLVESGGGLVQAGGSLRLSCAASGSTFVGYVMGWSRQAPGKERELVAAITRSGTSTYYADSVKGRFTISRDNAKNTVYLQMNSLKPEDTAVYYCARRYVSSDYYYWGQGTQVTVSS”, for which the “polyreactivity (PSR sort gate)” value was “low polyreactivity”.

Take “QVQLVESGGGLVQAGGSLRLSCAASGSTFVHNAMGWYRQAPGKERELVAAISESGGGTYYADSVKGRFKISRDNAKNTVYLQMNSQKPEDTAVYYCAAPPAGENWRDGGGYFGQGTQVTVSS”: the “polyreactivity (PSR sort gate)” value is listed as “low polyreactivity”.

As for “QVQLVESGGGLVQAGGSLRLSCAASGSTFVHYAMGWYRQAPGKERELVAAITISGGRTYYADSVKGRFTISRDNAKNTVYLQMNSLKAEDTAVYYCNADHYHRTWGYDYWGQGTQVTVSS”, the “polyreactivity (PSR sort gate)” value is recorded as “low polyreactivity”.

As to “QVQLVESGGGLVQAGGSLRLSCAASGSTFVIYALGWYRQAPGKERELVAALSWSGGRTNYADSVKGRFTISRDNAKNTVYLQLNSLKPEDTAVYYCAAVTGVPYPHGRYKYGYWGQGTQVTVSS”, the “polyreactivity (PSR sort gate)” value was “high polyreactivity”.

For the sequence “QVQLVESGGGLVQAGGSLRLSCAASGSTFVKNVMGWYRQAPGKERELVAGITRGGSTYYADSVKGRFTISRDNAKNTVYLQMNSLKPEDTAVYYCAAARWSQYRTWMNYWGQGTQVTVSS”, the “polyreactivity (PSR sort gate)” value was “high polyreactivity”.

Consider “QVQLVESGGGLVQAGGSLRLSCAASGSTFVKYVMGWYRQAPGKERELVAAISWSGGSTYYADSVKGRFTISRDNAKNTVYLQMNSLKPEDTAVYYCAAVNWYDSYAKYYWGQGTQVTVSS”, for which the “polyreactivity (PSR sort gate)” value is “high polyreactivity”.

Turning to “QVQLVESGGGLVQAGGSLRLSCAASGSTFVLYAMGWYIQAPGKERELVAAIDSSGGSTYYADSVKGRFTISRDNAKNTVYVQMNSLKPEDTAVYYCAARFKGLLGYWGQGTQVTVSS”, the “polyreactivity (PSR sort gate)” value is on record as “high polyreactivity”.

Take “QVQLVESGGGLVQAGGSLRLSCAASGSTFVLYAMGWYRQAPGKERELVATITTSGARTHYADSVKGRFTISRDNAKNTVYLQINSLKPEDTAVYYCAAESYWTGYDYGGQGTQVTVSS”: the “polyreactivity (PSR sort gate)” value is on record as “low polyreactivity”.

On to “QVQLVESGGGLVQAGGSLRLSCAASGSTFVNNAMGWYRQAPGKERELGASITVGGSTYYADSVKGRFTISRDNAKNTVYLQMNSLKPEDTAVYYCAAADYRFWSRYDYWGQGTQVTVSS”, for which the “polyreactivity (PSR sort gate)” value is recorded as “low polyreactivity”.

On to “QVQLVESGGGLVQAGGSLRLSCAASGSTFVNYAMGWYRQAPGKERELVAAITRGGRTYYADSVKGRFTISRDNAKNTVYLQMNSLKPEDTAVYYCAARRSYNPAFGYWGQGTQVTVSS”, for which the “polyreactivity (PSR sort gate)” value is given as “high polyreactivity”.
